{"source": "paper PMC7313238", "about": "(Journal of the American Society for Mass Spectrometry, 2020)", "proteins": {"B1": {"name": "BX1 from Zea mays (zmBX1), wild type (enzyme)", "chain": "SRPVSDTMAALMAKGKTAFIPYITAGDPDLATTAEALRLLDGCGADVIELGVPCSDPYIDGPIIQASVARALASGTTMDAVLEMLREVTPELSCPVVLLSYYKPIMSRSLAEMKEAGVHGLIVPDLPYVAAHSLWSEAKNNNLELVLLTTPAIPEDRMKEITKASEGFVYLVSVNGVTGPRANVNPRVESLIQEVKKVTNKPVAVGFGISKPEHVKQIAQWGADGVIIGSAMVRQLGEAASPKQGLRRLEEYARGMKNALP"}}, "biological_target": "the molecule itself", "assay": "SEC + native MS", "data": [{"protein": "B1", "values": [{"measurement": "stoichiometry N", "value": 2}]}]}
